Measurements published in PMC6955338 (Proceedings of the National Academy of Sciences of the …, 2019).

Legend:
[1] = biological target: mouse CD11b I-domain (moCD11b-I) (mouse) (UniProt P05555); assay: BLI
[2] = biological target: human CD11b I-domain (huCD11b-I) (human); assay: SAXS
[3] = biological target: T1, leukocidin GH (LukGH) wild-type (Staphylococcus aureus USA300 (ST8) …); assay: SAXS
T1 chain 1: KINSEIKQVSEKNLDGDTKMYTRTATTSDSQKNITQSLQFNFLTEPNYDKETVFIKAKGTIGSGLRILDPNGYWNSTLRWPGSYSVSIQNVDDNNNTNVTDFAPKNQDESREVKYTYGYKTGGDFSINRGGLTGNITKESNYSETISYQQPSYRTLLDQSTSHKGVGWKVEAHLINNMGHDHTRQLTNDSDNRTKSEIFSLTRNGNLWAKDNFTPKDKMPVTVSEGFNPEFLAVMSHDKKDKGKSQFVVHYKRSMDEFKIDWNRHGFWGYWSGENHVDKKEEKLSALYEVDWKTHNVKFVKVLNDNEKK
T1 chain 2: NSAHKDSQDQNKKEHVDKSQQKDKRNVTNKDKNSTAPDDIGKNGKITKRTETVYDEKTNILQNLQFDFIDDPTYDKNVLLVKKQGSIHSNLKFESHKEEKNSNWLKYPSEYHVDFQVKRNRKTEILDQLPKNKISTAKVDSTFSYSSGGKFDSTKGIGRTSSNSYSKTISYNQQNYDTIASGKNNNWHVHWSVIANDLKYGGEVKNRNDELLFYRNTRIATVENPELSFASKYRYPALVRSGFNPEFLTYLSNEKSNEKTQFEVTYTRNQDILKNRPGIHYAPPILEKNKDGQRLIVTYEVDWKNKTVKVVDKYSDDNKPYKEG

Chain of mouse CD11b I-domain (moCD11b-I) (mouse) (P05555 143-337): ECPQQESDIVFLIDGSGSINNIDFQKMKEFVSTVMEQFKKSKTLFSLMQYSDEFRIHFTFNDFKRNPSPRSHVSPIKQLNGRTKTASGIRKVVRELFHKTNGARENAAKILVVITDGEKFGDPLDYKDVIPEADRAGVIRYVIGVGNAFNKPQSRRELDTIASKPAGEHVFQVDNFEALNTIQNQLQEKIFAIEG

In the case of LukGH^K319A (complex), the Kd [1] is reported as 63 nM.

In the case of “leukocidin GH (LukGH) wild-type (complex)”, the stoichiometry N [2] is reported as 1 and the Kd [1] is reported as 1000 nM.

B1: Fab of αLukGH-mAb#5.H1H2 (Fab, V domains shown)
VH: ELQLQESGPGLVKPSETLSLTCTVSGGSISSGSYYWDWIRQPPGKGLEWIGNIYKSGSTYYNPSLKSRVTISVDTSKNQFSLKLSSVTAADTAVYYCARERGMHYMDVWGKGTTVTVSS
VL: DIQMTQSPSSLSASVGDRVTITCRASQSINSYLNWYQQKPGKAPKLLIYAASSLQSGVPSRFSGSGSGTDFTLTISSLQPEDFATYYCQQQFDPPFTFGGGTKVEIK
B1: binds [3].
